Results reported in the supplement of paper PMC10567573.

B1: ADAMTS4 (parent)
chain: HVDPEEPWSPCSARFITDFLDNGY
B2: CDC14A (parent)
chain: LNLAMVYRYCCKLNKKLKSYSLSR

Variants of: B1
Assay: protein stability index of a GFP-peptide fusion (GPS, HEK-293T) (PSI 1-6); higher = more stable
Details: c terminus: a fixed tail appended
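Note: lentivirally expressed fusions sorted by FACS into six bins by GFP to DsRed ratio, PSI derived from sequencing read proportions per bin multiplied by bin number.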

Protein stability index, by site and new letter:
G23: T 2.22 | Y 2.02 | V 2.27 | W 1.82 | S 1.71
Y24: F 2.17 | P 1.92 | N 2.21 | D 1.75 | H 1.9 | W 1.64 | R 1.96 | A 2.32 | G 2.36 | K 1.94 | I 2.05 | T 2 | C 1.39 | E 2.01 | M 2.07 | V 1.73 | L 1.84 | Q 2.1 | S 1.81

Variants of: B2
Assay: as above
Details: c terminus: a fixed tail appended

Protein stability index of substitutions, site by site:
L17: E 1.69 | P 3.05 | T 2.08 | R 2.78 | D 2.14 | V 4.14 | G 2.85 | Y 3.33 | H 2.21 | N 2.54 | K 2.24 | F 2.64 | C 4.4 | A 2.65 | S 2.17 | I 2.95 | M 3.07
L1: A 2.44 | S 3.71 | R 2.77 | I 3.18 | K 2.73 | E 3.44 | T 2.3 | C 3.72 | D 3.11 | M 3.23 | Y 2.49 | F 2.51 | H 2.26
S19: I 3.03 | A 3.52 | M 3.69 | C 2.98 | G 2.5 | L 2.5 | K 2.19 | H 2.3 | D 2.28
Y7: P 2.23 | G 2.43 | M 1.91 | T 3.96 | K 2.13 | I 3.1 | C 2.73 | Q 2.71 | H 2.68 | A 1.85 | L 3.34 | V 3.72 | F 3.48 | E 2.16 | N 2.46 | S 3.42
L13: D 2.11 | P 1.2 | K 1.56 | E 2.48 | V 4.56 | Y 2.32 | M 3.6 | H 2 | I 2.69 | G 2.49 | A 2.92 | T 2.08 | S 1.8 | Q 3.27 | F 3.31 | R 3.08 | N 1.89 | W 1.96 | C 2.79
R8: H 4.35 | L 3.17 | Q 2.26 | I 2.62 | S 2.98 | Y 2.67 | C 3.52 | T 2.03 | E 2.43 | N 1.97 | P 2.09 | G 3.71 | D 3.23 | V 3.11 | K 2.08 | F 3.02
K16: L 2.13 | D 2.56 | W 2.81 | F 1.63 | G 3.28 | R 3.33 | C 4.54 | I 1.62 | T 3.67 | M 2.77 | N 2.32 | Y 2.72 | S 2.33 | Q 2.35 | P 2.42 | E 1.9 | H 3.33
V6: F 5.59 | R 2.78 | S 2.5 | M 2.72 | D 2.05 | L 2.01 | C 3.05 | P 2.15 | K 2.39 | W 3.43 | N 1.63 | A 3.5 | I 3.28 | T 2.46 | Y 2.45 | Q 2.85 | E 1.76 | G 1.73 | H 2.03
C11: S 3.77 | L 2.64 | G 4.89 | M 2.74 | I 3.23 | P 1.97 | A 2.73 | W 2.15 | Y 2.63 | H 3.15 | D 2.85 | K 3 | V 2.45 | E 1.62 | R 2.64 | N 3.24
K15: D 2.33 | N 2.31 | F 2.81 | L 3.39 | M 1.07 | C 4.37 | H 3.69 | Y 3.3 | I 3.62 | V 3.04 | P 2.32 | Q 4.63 | E 3.47 | T 2.62 | A 2.87
K18: D 2.42 | C 1.73 | A 2.11 | T 3.6 | P 2.5 | H 2.96 | L 1.71 | M 3.72 | Y 2.67 | S 2.9 | N 2.77 | V 2.46 | I 2.79 | G 3.2 | Q 1.97 | E 3.12
N14: P 4.59 | A 3.35 | R 3.97 | M 1.94 | S 2.35 | G 3.52 | I 2.38 | F 2.31 | D 2.8 | K 3.38 | T 3.41 | C 3.38 | V 1.78 | Q 4.32 | E 4.6 | Y 3.35 | H 3.21
N2: L 2.17 | R 2.39 | T 2.24 | E 3.15 | M 3.27 | V 1.82 | P 3.42 | F 1.04 | I 2.14 | C 3.28 | W 3.17 | A 3.34 | Y 2.64
K12: L 2.5 | V 2.59 | I 3.53 | E 1.5 | A 2.1 | R 2.13 | S 2.58 | P 2.87 | M 2.19 | D 1.81 | F 2.18 | Q 3.04 | N 2.15 | W 2.14 | Y 2.51 | H 1.73 | G 1.89 | T 2.55
L3: Y 1.81 | G 4.11 | H 1.8 | P 3.05 | I 2.02 | M 2.88 | D 2.29 | K 3.48 | V 2.59 | S 2.2 | A 2.74 | E 2.32 | C 4 | N 1.89 | T 2.79 | R 2.17 | Q 2.61 | F 3.38
M5: C 4.65 | D 3.92 | L 2.57 | E 3 | G 3.92 | F 2.8 | W 3.48 | Y 3.21 | A 2.67 | N 3.77 | V 2.54 | T 3.46 | H 3.35 | Q 1.56 | P 3.2 | K 3.87
C10: Y 4.25 | H 3.62 | K 1.65 | D 2.31 | G 2.71 | V 3.25 | N 1.95 | W 3.64 | M 2.89 | A 2.41 | P 2.05 | R 1.59 | S 2.28 | Q 2.8 | I 4.27 | F 2.71 | T 2.32 | E 1.98 | L 2.67
Y9: T 2.54 | H 2.48 | A 2.3 | D 2.91 | C 2.59 | M 1.81 | E 2.45 | S 2.19 | N 2.03 | K 3.54 | P 1.41 | I 2.02 | V 2.44 | Q 3.9 | W 2.91 | R 2.03 | G 3.25
A4: C 3.81 | N 3.18 | M 3.12 | K 1.59 | R 3.08 | I 2.37 | S 3.5 | P 3.19 | W 1.8 | E 2.43 | H 3.55 | T 2.15 | Y 2.91 | V 2.74 | D 4.12 | G 3.33 | F 3.74 | L 2.68 | Q 4.07
